± gives the standard deviation of the averaged measurements.
System: Saccharomyces cerevisiae
Assay: protein stability index of tFT-peptide fusion (C-terminal peptide) (PSI (0-1 scale)); higher = more stable (slower turnover)
Details: genetic background: wild type; temperature: 30 C
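Note: PSI is a weighted mean of sequencing reads over stability bins, variants kept only with over 10 reads, mCherry proximal and sfGFP distal, peptide attached via GGGS linker.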

Sequence	protein stability index
VFLCNGVGGRGG	0.681 ± 0.27
NPWTHVPGRQNH	0.731 ± 0.054
FSGLSPPRPEFV	0.708 ± 0.0089
CVGCVVGAGVTS	0.684 ± 0.049
KKVGHGLRERGQ	0.628 ± 0.061
RDGDVRTLMGWD	0.732 ± 0.037
SGDVENQMGEES	0.717 ± 0.062
SSLSPGFPLPSS	0.6989 ± 0.0014
IKKIEKANRKTK	0.661 ± 0.034
SIQHGRFLTLSV	0.585 ± 0.0093
GGGTGALGTVRW	0.765 ± 0.055
LSPGQVLPWGVL	0.643 ± 0.069
GDLVRNARSLII	0.72 ± 0.014
GVGGCVMGVGRV	0.64763 ± 0.00048
TFFPPLPPPSPS	0.702 ± 0.012
PRPLLFPLIFTP	0.627 ± 0.026
MESGKILGCCGI	0.684 ± 0.012
GCSVSRIRSAYV	0.672 ± 0.0089
GRVRARGRRGKG	0.625 ± 0.058
NPVFPPPPHSQL	0.75 ± 0.18
PRRQCIRAPCAR	0.641 ± 0.018
EREALKSCIIRA	0.641 ± 0.014
AALRLVEDKSTW	0.71 ± 0.059
RLGGRDCWGPWG	0.693 ± 0.017
GGRGPSAVGSGV	0.74 ± 0.085
RGGGLGGLRSRA	0.823 ± 0.081

Sequence	protein stability index
SPPSPAFTPAPF	0.669 ± 0.077
LTRFQPTPCLPP	0.691 ± 0.0074
RRRMVYPLPPTL	0.641 ± 0.052
LSQFQEPPFYLF	0.708 ± 0.044
PPPPPSPSPCLA	0.767 ± 0.044
CQQCLATYNKGP	0.708 ± 0.16
IKSKERLKKRQS	0.6679 ± 0.00067
AGARLEWVVAGR	0.7539 ± 0.0045
GSGRNKGLWRIW	0.725 ± 0.04
SRLRITIRNVHS	0.629 ± 0.048
FFTFTMSIPRWL	0.617 ± 0.055
FGSLMFCLLPLH	0.6527 ± 0.0026
PHPVTVFLSHLS	0.499 ± 0.041
ALEFRDASLPVQ	0.682 ± 0.068
CSCPEDGILCIF	0.62 ± 0.076
PTSFPAPNLPPD	0.669 ± 0.0045
GGGRPGLRALSY	0.747 ± 0.034
VAVCGTTNGKNA	0.75 ± 0.033
PTRRVHRTPLFP	0.778 ± 0.13
RLHCEGCDPGSL	0.7189 ± 0.0015
RSSEVQADRMCQ	0.668 ± 0.025
AGRTGVLGGHVP	0.691 ± 0.0095
GHCVALGNRVLH	0.665 ± 0.068
LFTDIQAPSVKH	0.788 ± 0.18
LPLMVPIPLLLP	0.648 ± 0.024
PPLLLTSLMLLP	0.655 ± 0.034

Sequence	protein stability index
RPDSGFPLRGSS	0.75 ± 0.098
NPTPPNLRSNLF	0.6877 ± 0.0055
STPPPRSLPSPP	0.716 ± 0.045
GRRVPGPLRSSE	0.709 ± 0.085
NPFCPILPFALL	0.853 ± 0.069
PPPVDLPTRLIP	0.642 ± 0.0073
VKGLFLHFLESS	0.695 ± 0.042
GELVVRVGEWGC	0.7051 ± 0.0027
LRQKKIELPIEP	0.687 ± 0.02
DLFSALWGEYVL	0.741 ± 0.013
PPSPRFFPSFPP	0.729 ± 0.021
APFRHKANEPGE	0.706 ± 0.037
PAPALPPPSSPP	0.69 ± 0.0095
GLAQRAIKNRHR	0.679 ± 0.11
RFLMGYEVNCAV	0.548 ± 0.015
VCGLCGGFMGLA	0.69 ± 0.042
PSPAAPSPPCLP	0.64 ± 0.045
WDNGQVRLLRYV	0.593 ± 0.015
FVLLGVRGGAGW	0.698 ± 0.021
PSPAPPSPPSPP	0.679 ± 0.028
RGRWRVGWGVGD	0.67 ± 0.017
VFGAHGRYQDSR	0.607 ± 0.054
PSLRLPVSVPTL	0.717 ± 0.018
LPLYYPPGTREL	0.708 ± 0.027
WCVRWGVVGPGL	0.634 ± 0.03
LAPTNAPYPHPM	0.658 ± 0.015

Sequence	protein stability index
LPRSPPCCHVND	0.628 ± 0.02
CLCYAWVPAPLF	0.604 ± 0.018
FGRDTDIYLASL	0.691 ± 0.037
IPLPPHLTPPST	0.677 ± 0.086
ELLPFPPPSAPT	0.719 ± 0.022
GGRVAGSMGGGG	0.719 ± 0.056
IGCTRSREESRE	0.689 ± 0.013
GPPTKLTLNQQK	0.6286 ± 0.00082
LPSPHPPPPPLS	0.673 ± 0.13
PPAPPLPSSPSP	0.773 ± 0.024
PAWVEARWLCRG	0.764 ± 0.069
GSRWRISYQQVL	0.623 ± 0.037
LLRVLVTFDAFD	0.576 ± 0.021
HGFSRFAACNGV	0.666 ± 0.0071
RQSREGKANRRW	0.742 ± 0.049
LWKLLNTVKNAA	0.62 ± 0.01
GGDIRGGVRHIG	0.725 ± 0.026
LRVGMSSASVFQ	0.733 ± 0.03
AWECCFLGRSGV	0.846 ± 0.075
FSPHTPPRRLPL	0.721 ± 0.066
RRAVLDSPSRRY	0.786 ± 0.031
AWEETISVIGVM	0.711 ± 0.048
APPSPTSPPTPP	0.642 ± 0.1
RPPPPASPPSAP	0.588 ± 0.076
HSLPPLRPYPSP	0.7553 ± 0.00076
VLAFSPCPPPPP	0.657 ± 0.026

Sequence	protein stability index
LSSSVIFALPLP	0.767 ± 0.034
PPATQSPPLPPC	0.766 ± 0.037
GGSRGVGASEEC	0.6515 ± 0.005
VVGAWGRGGCGG	0.633 ± 0.01
GGAYRCFSIQRS	0.687 ± 0.0078
SRRWRPDSSRIQ	0.667 ± 0.1
SVGIWSYGLCWF	0.753 ± 0.055
CPPPIPPSRPPS	0.666 ± 0.067
PPPGSPLPPPRA	0.702 ± 0.036
RYYKKQNWKIGL	0.663 ± 0.13
DSPRSLALFRSC	0.642 ± 0.028
PPAPHPHLPSSY	0.685 ± 0.072
MPGSLPVSRVLL	0.74 ± 0.087
EGGETLLGAKGR	0.639 ± 0.013
LLVLPLVFSCSS	0.53 ± 0.0078
VVVLCLFFSFFL	0.5872 ± 0.0011
PEERSGTSAGRL	0.695 ± 0.038
WRWCGLWDTRTY	0.819 ± 0.0085
LPSHRSPITSFL	0.668 ± 0.14
RMDIRVWATFCG	0.705 ± 0.11
RNVFVPFMRGSP	0.737 ± 0.077
HPTRHPPTPPCY	0.704 ± 0.018
SDKGKSSVSGSN	0.678 ± 0.012
SPPLRPPAPLVL	0.631 ± 0.14
PPPSPAQIPRPS	0.722 ± 0.19
RVYYPSGVKCRL	0.671 ± 0.033

Sequence	protein stability index
SRTLYSHLLFFP	0.66 ± 0.0097
QQKKKTKGNNEV	0.661 ± 0.065
SGCLGGGRGGWG	0.657 ± 0.013
PAHPPPPATPCP	0.6817 ± 0.0063
TSKRRRWGTTRK	0.672 ± 0.074
GWGGSTLRGVRR	0.719 ± 0.03
PPPTPACPPATL	0.693 ± 0.039
CESEAGGGVTLC	0.669 ± 0.025
SSERVLVRRRGS	0.566 ± 0.12
RGGGGRGFAGRK	0.608 ± 0.038
LPLAMTTIGISL	0.675 ± 0.011
AVERGGRGRVVG	0.639 ± 0.04
KSASIGTTLRNL	0.699 ± 0.022
RKQRAGRRKDKQ	0.734 ± 0.043
LRFLLLRFILRS	0.472 ± 0.048
LKPMSRKSLRSM	0.715 ± 0.022
ASSVLLIAQLQS	0.619 ± 0.0054
QAGALTTIPTFA	0.616 ± 0.019
SRIASKNRKRKR	0.774 ± 0.024
VVKGGGLGRRAG	0.66 ± 0.089
GSVYFDLLCVRP	0.729 ± 0.048
SGFKRWSDVGDY	0.6815 ± 0.0057
AARFRAVPVFGN	0.661 ± 0.037
LCHESFDGTFVN	0.72 ± 0.022
TLPVPLPSVSHS	0.685 ± 0.0098
FLPHSPSLPQLP	0.67 ± 0.013

Sequence	protein stability index
PPPAPPGPRYRR	0.696 ± 0.025
AGSSLVVAWHGV	0.673 ± 0.028
PANQVKTILGRL	0.694 ± 0.11
VVFKPHEVRTSD	0.717 ± 0.054
PSFPSLLPPPPT	0.703 ± 0.025
HRTKRPKTKRPP	0.628 ± 0.036
NKKKKHTQYKRK	0.694 ± 0.0077
KHGSKEAHKNEN	0.695 ± 0.015
FPPLPPPPPPLN	0.743 ± 0.065
ILGDGRLRLISF	0.682 ± 0.05
WSSTLFFFVGFS	0.673 ± 0.056
LSSNSTTSATYR	0.722 ± 0.016
PRLSGLFLAPPS	0.707 ± 0.037
GNAGGFRSLISW	0.663 ± 0.065
SPHPPPSRLPPP	0.709 ± 0.029
PVLGYLTRGLWL	0.721 ± 0.015
NKKQTKKKRKNK	0.731 ± 0.037
DSSLCFAGLHNT	0.705 ± 0.054
LGMGWGSGLERW	0.826 ± 0.12
PEPEPAGASQKR	0.577 ± 0.0076
FHGSIVQLTFRA	0.603 ± 0.047
LSCWLGCVALGW	0.718 ± 0.13
SWTWLFGFRRGL	0.746 ± 0.11
SQLERSNHGWVR	0.651 ± 0.064
YCGSVCRPYSYL	0.695 ± 0.057
LPPLSLSPPLPP	0.689 ± 0.049

Sequence	protein stability index
LVAAEARIGFAV	0.7 ± 0.012
PSLPPRPQLVHS	0.596 ± 0.017
PSPLRPSPAVPS	0.716 ± 0.064
CLLLGDALGYYG	0.683 ± 0.033
MSPSVFLPPLPL	0.662 ± 0.09
VVWVCVRLPVRR	0.53046 ± 0.00025
SPLTTFPPHRVS	0.711 ± 0.014
YRGRGSDQYAGT	0.624 ± 0.058
LPWLTASRLVMR	0.714 ± 0.043
GCLHVVGGVCLG	0.69 ± 0.048
FGPAQGYCLVGA	0.544 ± 0.025
VRPCLYPCSRTV	0.708 ± 0.03
ATTQLPPPGGMC	0.695 ± 0.024
CRPFGVSCHIRV	0.739 ± 0.17
PRLPPLRPPPSP	0.7079 ± 0.0064
YKNRKYNGKIRI	0.585 ± 0.18
SISLLIWLFSSC	0.637 ± 0.05
VRVGNYTRARCK	0.714 ± 0.035
LSLFMAAREVFP	0.664 ± 0.018
NGTGGVEGPQTL	0.659 ± 0.025

Source: the supplement of paper PMC10724198
